The text below walks through data of patent US6290951A, “Alteration of the cell cycle in vivo, and particularly for inducing apoptosis of tumor cells” (Alfacell Corporation, priority 1998, dated 2001).

Square brackets hold non-standard residues; d marks the D form. Peptide text beside a SMILES is read from it. Nle = CCCC[C@H](N)C(=O)O Bounds are passed on as bounds.

One assay has as its system HL-60 tumor cells. Particulars: proliferating HL-60 tumor cells; background art; cited from earlier work.
In another assay the test system is proteasome. Particulars: Proc Natl Acad Sci USA 94:855-860, 1997; cited from earlier work.
Assay [1] concerns MDA-MB-231 human breast carcinoma. Briefly: MTT assay, MDA-MB-231 cells. (In general: Formazan colour is commonly taken as a measure of viable cells.)
The test system of assay [2] is DU-145 human prostate carcinoma. Put plainly: MTT assay, DU-145 cells.
Assay [3] concerns A-549 human lung carcinoma. Put plainly: MTT assay, A-549 cells.
The mark [4] stands for this setting: A-549 cells, 10 μM LLnL with 0.1 to 1.0 μg/mL ranpirnase.

On to `CCCC[C@@H](C=O)NC(=O)[C@H](CC(C)C)NC(=O)[C@H](CC(C)C)NC(C)=O` [LLnL, N-acetyl-leucinyl-leucinyl-norleucinal] (Ac-Leu-Leu-[Nle]-aldehyde), for which the cell cycle arrest result in the assay on HL-60 tumor cells was “arrested the HL-60 cells in the G1 phase”.

Take `CSCC[C@@H](C=O)NC(=O)[C@H](CC(C)C)NC(=O)[C@H](CC(C)C)NC(C)=O` [LLM, N-acetyl-leucinyl-leucinyl-methioninal, reference compound] (Ac-Leu-Leu-Met-aldehyde): the “inhibition of the activity of proteasome” value in the assay with proteasome is given as “does not significantly inhibit”. Further, in assay [1] (MDA-MB-231 cells, 25 μM LLM alone), the “effect on growth and viability versus untreated controls” value is “no significant effect”.

Turning to `COc1cccc2c1C(=O)c1c(O)c3c(c(O)c1C2=O)C[C@@](O)(C(=O)CO)C[C@@H]3O[C@H]1C[C@H](N)[C@H](O)[C@H](C)O1` [doxorubicin, reference compound], the “effect of adding doxorubicin on cell growth or cell viability” value in assay [1] (MDA-MB-231 cells, ranpirnase plus 0.1 μg/mL doxorubicin plus 15 μM LLnL versus ranpirnase plus LLnL) is “did not significantly decrease”.

In the case of `CC(=O)N[C@@H](CC(=O)O)C(=O)N[C@@H](CCC(=O)O)C(=O)N[C@H](C(=O)N[C@H](C=O)CC(=O)O)C(C)C` [Ac-DEVD-cho, N-acetyl-L-aspartyl-L-glutamyl-L-valinyl-L-aspartal, reference compound], the “increase of viability of cells versus LLnL alone” value in assay [2] (DU-145 cells treated with LLnL, without ranpirnase, Ac-DEVD-cho 50 μpM) is recorded as “approximately 4 fold”. The “increase of viability of cells” value in assay [2] (DU-145 cells treated with ranpirnase and 25 μpM LLnL, Ac-DEVD-cho 50 μpM) is recorded as 2- to 3 fold.

As for `CC(=O)N[C@@H](CC(C)C)C(=O)N[C@H](C(=O)N[C@H](C=O)Cc1ccccc1)C(C)C` [LVP, N-acetyl-leucinyl-valinyl-phenylalaninal, reference compound], the “augmentation of the anti-tumor activity of ranpirnase” value is given as “augmented” in assay [3] (A-549 cell line, peptide aldehyde added to ranpirnase) and “augmented” in assay [2] (DU-145 cell line, peptide aldehyde added to ranpirnase).

B1: ranpirnase: USAN generic name of the pharmaceutical described in U.S. Pat. No. 5,559,212, known by the registered trademark ONCONASE (protein, UniProt P22069 1-104, looked up)
Protein P-30: QDWLTFQKKHITNTRDVDCDNIMSTNLFHCKDKNTFIYSRPEPVKAICKGIIASKNVLTTSEFYLSDCNVTSRPCKYKLKKSTNKFCVTCENQAPVHFVGVGSC
Regarding B1, the “interaction of ranpirnase and LLnL” value in assay [3] (A-549 cell line) is reported as “synergistically”; in assay [3] (setting [4]), “not synergistic”; in assay [3] (A-549 cells, higher concentrations (15 to 35) μM of LLnL), “synergistic”; in assay [2] (DU-145 cell line), “synergistically”; in assay [1] (MDA-MB-231 cell line), “synergistically”. In addition, the “anti-tumor activity of ranpirnase combined with LLnL versus each single agent (Newman-Keuls)” value in assay [3] (A-549 cells), in assay [2] (DU-145 cells) and in assay [1] (MDA-MB-231 cells) was “significantly greater” in each case. Further, the “effect of the combination versus ranpirnase alone” value in assay [3] (setting [4]) is recorded as “greater than the effect of ranpirnase alone”. Moreover, the “mean ED50 value for ranpirnase” value was 1.356 µg/mL in assay [3] (A-549 cells, in combination with 10 μM LLnL); 0.640 µg/mL in assay [3] (A-549 cells, in combination with 15 μM LLnL); 0.060 µg/mL in assay [3] (A-549 cells, in combination with 25 μM LLnL); “less than 0.001 μg/mL” in assay [3] (A-549 cells, in combination with 35 μM LLnL); 3.944 µg/mL in assay [3] (A-549 cells, ranpirnase alone); 0.037 µg/mL in assay [1] (MDA-MB-231 cells, in combination with 10 μM LLnL). Also, the “mean ED50 value for ranpirnase” value in assay [1] (MDA-MB-231 cells, in combination with 15 μM LLnL) was found to be 0.022 µg/mL; in assay [1] (MDA-MB-231 cells, in combination with 25 μM LLnL), 0.001 µg/mL; in assay [1] (MDA-MB-231 cells, ranpirnase alone), 1.434 µg/mL. Moreover, the “interaction of ranpirnase with LLnL” value in assay [2] (DU-145 cells, all concentrations of ranpirnase, 10 to 25 μM LLnL) is on record as “synergistic”; in assay [1] (MDA-MB-231 cells, ranpirnase 0.1 to 10.0 μg/mL, LLnL 5 to 25 μM (particularly 10 to 25 μM)), “synergistically”. In addition, the “ED50 value for ranpirnase” value was 1.231 µg/mL in assay [2] (DU-145 cells, combined with 10 μM LLnL); 0.001 µg/mL in assay [2] (DU-145 cells, combined with 15 μM LLnL); less than 0.001 µg/mL in assay [2] (DU-145 cells, combined with 25 μM LLnL); 42.276 µg/mL in assay [2] (DU-145 cells, ranpirnase alone). Moreover, the “activity of combination of ranpirnase and LLM versus ranpirnase alone” value in assay [1] (MDA-MB-231 cells, 25 μM LLM) is reported as “no significant difference”. In assay [1] (MDA-MB-231 cells, additional treatment with 25 μM LLM), the “decrease of mean ED50 value for ranpirnase” value was “approximately two-fold”. Also, the “decrease of mean ED50 value for ranpirnase versus ranpirnase alone” value in assay [1] (MDA-MB-231 cells, in combination with 0.1 μg/mL (approximately 0.17 μM) doxorubicin) was found to be 2.2 fold.
